Data taken from patent US20220267396A1.
“And” between values parts separate entries of the source, which are not always exact repeats. Equal values may be shown once.

T1: IL-10 receptor 1 (IL-10R1), IL-10R His-tag protein
T1 sequence (Q13651 22-235, species assumed, looked up): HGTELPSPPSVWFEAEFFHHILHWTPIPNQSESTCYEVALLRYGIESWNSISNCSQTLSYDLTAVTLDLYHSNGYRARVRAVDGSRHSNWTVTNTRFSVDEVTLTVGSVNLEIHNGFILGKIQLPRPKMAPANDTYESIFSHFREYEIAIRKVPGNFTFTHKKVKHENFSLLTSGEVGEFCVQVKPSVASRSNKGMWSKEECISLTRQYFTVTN


Experiments:
[1] = molecular target: anti-DNP mouse IgE antibody (Sigma, USA); assay: BLI (Octet K2), fusion protein on sensor, anti-DNP mouse IgE in solution
[2] = molecular target: anti-DNP mouse IgE antibody (Sigma, USA); assay: BLI (Octet K2), average of three runs, fusion protein on sensor, anti-DNP mouse IgE in solution
[3] = molecular target: anti-DNP mouse IgE antibody (Sigma, USA); assay: BLI (Octet K2), fusion protein amine-coupled to AR2G sensor, anti-DNP mouse IgE in solution 50 pM-3.125 nM
[4] = molecular target: T1, IL-10 receptor 1 (IL-10R1), IL-10R His-tag protein; assay: BLI (Octet K2), IL-10R His-tag amine-coupled to AR2G sensor, fusion protein in solution 0-1,000 nM
[5] = molecular target: T1, IL-10 receptor 1 (IL-10R1), IL-10R His-tag protein; assay: BLI (Octet K2), IL-10R His-tag on sensor

Molecule | kon [1] | Kd [2] [nM] | Kd [3] | Kd [4] [nM] | koff [4] [s⁻¹] | kon [4] [M⁻¹ s⁻¹] | fold of KD against Comparative Example 1 (NTIG-IL-10V) [5] [fold]
FcεRIα-Fc fusion protein not containing IL-10Vm (control) (from UniProt P12319 26-205) | 123000 M⁻¹ s⁻¹ and 149000 M⁻¹ s⁻¹ and 166000 M⁻¹ s⁻¹ | 0.594 | 0.364 nM and 0.478 nM and 0.94 nM |  |  |  | 
IL-10M (NTIG-linker 1-IL-10V), dimeric IL-10 variant fusion protein of Comparative Example 1 (Fc fusion, not shown: a dimerising Fc or GST) AAGSGGGGGSGGGGSGGGGSSPGQGTQSENSCTHFPGNLPNMLRDLRDAFSRVKTFFQMKDQLDNLLLKESLLEDFKGYLGCQALSEMIQFYLEEVMPQAENQDPDAKAHVNSLGENLKTLRLRLRRCHRFLPCENKSKAVEQVKNAFNKLQEKGIYKAMSEFDIFINYIEAYMTMKIRN |  |  |  | 11.1 | 0.0008 | 71100 | 
IL-10M-1 (NTIG-linker 1-IL-10Vm), monomeric IL-10 variant fusion protein of Example 1 (Fc fusion) SHTQPLGVFLFPPKPKDQLMISRTPEVTCVVVDVSQEDPEVQFNWYVDGVEVHNAKTKPREEQFNSTYRVVSVLTVLHQDWLNGKEYKCKVSNKGLPSSIEKTISKAKGQPREPQVYTLPPSQEEMTKNQVSLTCLVKGFYPSDIAVEWESNGQPENNYKTTPPVLDSDGSFFLYSRLTVDKSRWQEGNVFSCSVLHEALHNHYTQKSLSLSLGAAGSGGGGGSGGGGSGGGGSSPGQGTQSENSCTHFPGNLPNMLRDLRDAFSRVKTFFQMKDQLDNLLLKESLLEDFKGYLGCQALSEMIQFYLEEVMPQAENQDPDIKAHVNSLGENLKTLRLRLRRCHRFLPCENGGSGGSGGSKSKAVEQVKNAFNKLQEKGIYKAMSEFDIFINYIEAYMTMKIRN |  |  |  | 29.2 | 0.0006 | 20600 | 3
